Earlier results, collected in paper PMC5755571.

Molecular target: His64 (UniProt position 64, ILNNGHAFNVE)

Which pKa does the source give for “Carbonic anhydrase II (hCAII) (Homo sapiens)” here?
Its pKa is “around 7”.
